Positions count from the first letter of the chain named. Each block holds one binder with its values, some of them ahead of it.
How the values were obtained:
[1] = molecular target: T1, human CD138 (syndecan-1), membrane-bound on CD138+ multiple myeloma cell lines (human, UniProt P18827 23-310); experiment: flow cytometry on U266 cells, geometric MFI
T1 construct: whole, on cells; also called membrane CD138; cell surface CD138
T1 sequence (looked up): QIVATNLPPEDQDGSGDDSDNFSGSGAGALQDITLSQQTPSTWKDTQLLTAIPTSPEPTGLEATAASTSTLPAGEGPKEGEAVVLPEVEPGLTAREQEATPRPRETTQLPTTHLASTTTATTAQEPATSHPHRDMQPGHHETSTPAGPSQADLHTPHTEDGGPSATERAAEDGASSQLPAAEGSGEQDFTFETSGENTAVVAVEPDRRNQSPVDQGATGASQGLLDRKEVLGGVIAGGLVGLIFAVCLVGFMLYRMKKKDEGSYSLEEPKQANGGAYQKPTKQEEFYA

[2] = molecular target: T2, human CD138 derived peptide 6A (membrane proximal region), biotinylated (human, biotinylated (site not stated)); experiment: antigen capture ELISA, antibody coated, biotinylated peptide titrated from 50 nM
T2 construct: also called Pep6a
T2 peptide: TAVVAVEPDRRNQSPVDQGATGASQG
Method: (§1) 1 or select human CD138 derived peptides (Table 3) was evaluated by antigen capture ELISA. […] The immobilized monoclonal antibodies were tested for binding to biotinylated recombinant CD138 extracellular domain or peptides 2A, peptide 6A in 5-fold serial antigen dilutions starting at starting at a 50 nM concentration. HRP-conjugated Anti-biotin secondary antibody (1:10000 dilution) was used for detection.

[3] = molecular target: T3, human CD138 derived peptide 2A (integrin binding domain), biotinylated (human, biotinylated (site not stated)); experiment: as above
T3 construct: also called Pep2a
T3 peptide: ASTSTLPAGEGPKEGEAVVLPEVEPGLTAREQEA
Method: as §1

[4] = molecular target: T4, extracellular domain of soluble human CD138 (amino acids 18-251 of SEQ ID NO 1), biotinylated recombinant (human, UniProt P18827 18-251, biotinylated (site not stated)); experiment: antigen capture ELISA, antibody coated, biotinylated CD138 extracellular domain, reference BB4
T4 construct: also called CD138 extracellular domain; soluble extracellular domain of human CD138
T4 sequence: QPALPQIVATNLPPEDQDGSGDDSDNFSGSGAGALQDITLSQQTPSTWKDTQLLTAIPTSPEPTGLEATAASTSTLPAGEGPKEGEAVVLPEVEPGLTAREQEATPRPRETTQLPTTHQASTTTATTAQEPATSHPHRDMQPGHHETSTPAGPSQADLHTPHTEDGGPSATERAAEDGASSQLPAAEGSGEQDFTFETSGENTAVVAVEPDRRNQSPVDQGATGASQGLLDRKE
Method: as §1

[5] = molecular target: T1, human CD138 (syndecan-1), …; experiment: flow cytometry on U266 cells, maximal MFI, reference BB4
Method: The antibodies were then serially diluted three-fold. Antibody binding to membrane CD138 was evaluated using the CD138+ human lymphoblastic myeloma cell line U266 and quantified by flow cytometry. Antibody cell binding was reported as geometric mean fluorescence intensity (MFI). Binding data were plotted using nonlinear regression analysis and a 4-parameter curve fit.
Antibody cell binding was reported as geometric mean fluorescence intensity (MFI). Binding data were plotted using nonlinear regression analysis and a 4-parameter curve fit.

[6] = molecular target: T1, human CD138 (syndecan-1), …; experiment: flow cytometry on MM1.S, LP-1 and RPMI 8226 cells

binding result [1]: binds
B1: mouse chimeric anti-CD138 antibody 2810 (antibody, V domains shown)
VH: QVQLHQPGTSLVKPGASVKLSCKASGYSFSSYYMHWVKQRPGQGLEWIGTIHPSDSTTNYNQKFKGKATLTVDKSSRTAYMQLNSLTFEDSAVYYCANFVYWGQGTSVTVSS
VL: DIVITQDELSNPVTSGDSVSISCRSSKSLLYKDGKTYLNWFLQRPGQSPQLLIYVVSTRASGVSDRFSGSGSGTDFTLEISRVKAEDVGVYYCQQLVEYPYTFGGGTKLEIK
notes: Described as a mouse-human chimeric antibody; also called mAb2810

binding result [2]: binds
binding result [3]: binds
fold higher binding affinity in comparison to BB4 [4]: ~6 fold
total cell surface binding (maximal MFI) relative to antibody BB4 [5]: ~25 % greater than BB4
B2: humanized anti-CD138 antibody mAb 4320 (antibody, human IgG1, kappa, V domains shown)
VH: QVQLVQSGAEVKKPGASVKVSCKASGYSFSSYYMHWVRQAPGQGLEWMGTIHPSDSTTNYNQKFQGRVTMTVDTSTRTAYMELSSLRSEDTAVYYCANFVYWGQGTTVTVSS
VL: DIVMTQTPLSLSVTPGQPASISCKSSKSLLYKDGKTYLNWFLQKPGQSPQLLIYVVSTRASGVPDRFSGSGSGTDFTLKISRVEAEDVGVYYCQQLVEYPYTFGQGTKLEIKR
notes: Produced with 2FF in the medium to reduce core fucose of the N297 glycan

binding result [6]: binds
B3: humanized anti-CD138 antibody variant 3821 (antibody, human IgG1, V domains shown)
VH: B2 VH with A16S, T58A, Q65K, M70I, T74K, R77S
VL: DIVMTQTPLSLSVTPGQPASISCKSSKSLLYKDGKTYLNWFLQKPGQSPQLLIYVVSTRASGVPDRFSGSGSGTDFTLKISRVEAEDVGVYYCQQLVQYPYTFGQGTKLEIK
notes: also called mAb 3821

binding result [6]: binds
B4: humanized anti-CD138 antibody variant 4326 (antibody, human IgG1, V domains shown)
VH: B2 VH
VL: DIVMTQSPDSLAVSLGERATINCKSSQSLLYKDGKTYLNWFQQKPGQPPKLLIYVVSTRASGVPDRFSGSGSGTDFTLTISSLQAEDVAVYYCQQLVEYPYTFGQGTKLEIK
notes: also called mAb 4326

binding result [6]: binds
B5: humanized anti-CD138 antibody variant 4521 (antibody, human IgG1, V domains shown)
VH: B2 VH with S28N, S30A, Q65K, R77S
VL: B3 VL
notes: also called mAb 4521

binding result [6]: binds
B6: humanized anti-CD138 antibody variant 4321 (antibody, human IgG1, V domains shown)
VH: B2 VH
VL: B3 VL
notes: also called mAb 4321

binding result [6]: binds
B7: humanized anti-CD138 antibody variant 3820 (antibody, human IgG1, V domains shown)
VH: B2 VH with A16S, T58A, Q65K, M70I, T74K, R77S
VL: B3 VL with Q98E
notes: also called mAb 3820

From US20250382379A1 (VISTERRA, published 2025)
